Where two headings read alike, the source gives them in different places.

Series [1] is described as follows: Peroxidase activity: ABTS oxidation with H2O2 (formation of ABTS+• radical cation at 660 nm). The format is biochemical. The settings on record: for Specific activity: ABTS oxidation with H2O2, pH 6.5. The method, then: The peroxidase activity of the compound on the secondary substrate ABTS was evaluated by following the formation of the ABTS^+• radical cation, in the presence of H2O2.
The reaction was followed by using spectrophotometry, measuring the appearance of the products in the reaction medium. The formation of ABTS^+• cation radical was followed at 660 nm (λmax (ε)=660 nm (1.40×10^4 M^−1cm^−1)). The reaction was performed in 50% TFE (v/v) 100 mM phosphate buffer, pH 6.5, using a 2.0×10^−7 M catalyst concentration.
Kinetic parameters of the compound were determined by varying the H2O2 concentration using fixed concentrations of the reducing substrates, and vice versa.
In more details, in the experiments performed at various H2O2 concentrations (in the range 0.01÷ 200 mM) the ABTS concentration was kept constant at 0.1 mM. In the experiments performed at various ABTS concentrations (in the range 0.005÷ 0.1 mM) the H2O2 concentration was 50 mM.
The experiments were performed in 50% TFE (v/v) 100 mM phosphate buffer, pH 6.5. As described in the example 10, the catalytic process was evaluated by following the formation of the ABTS^+• radical cation at 660 nm (c=[…] cm^−1). Kinetic parameters of the compound were determined by varying the H2O2 concentration using fixed concentrations of the reducing substrates, and vice versa.
In more details, in the first experiment the ABTS and the conjugate concentrations were kept constant at 0.1 mM and 2 10^−7 M, respectively, and the H2O2 concentration was varied in the range 10-100 mM. In the second experiment, the H2O2 and the conjugate concentrations were fixed at 50 mM and 2 10^−7 M, respectively, and the ABTS concentration was varied in the range 0.005÷ 0.1 mM.

A short description of series [2]: Phenol nitration (NaNO2/H2O2), HPLC analysis. The format is biochemical. The conditions noted are these: 40 min, room temperature, substrate and oxidant 1.0 mM, 40 mM NO2−, 0.2 μM catalyst, pH 6.5, 50% TFE. The method, then: For the compound Fe(III)-3,7,12,17-tetramethyl-porphyrin-2(18)-N9epsilon-(Ace-Asp1-Glu2-Gln3-Gln4-Leu5-His6-Ser7-Gln8-Lys9-Arg10-Lys11-Ile12-Thr13-Leu14-NH2)-18(2)-N9epsilon-(Ace-Asp1-Glu2-Gln3-Gln4-Leu5-Ser6-Ser7-Gln8-Lys9-Arg10-NH2)-di-propionammide, whose synthesis is described in example 1, the ability to catalyze phenol nitration was evaluated. […] The concentrations of the starting material and products were determined from calibration curves constructed using commercial samples and 4-cyanophenol as internal standard. Standard incubation for phenol nitration were performed at 1 mM phenol in the presence of 0.2 μM catalyst, 20 mM NaNO2 and 3 mM H2O2 in phosphate buffer, pH 6.5, 50% TFE (v/v).
The reactions were performed at room temperature with an incubation time of 40 min. […] The yield of 4- and 2-nitrophenol at 40 min reaction time increased by increasing H2O2 NO2″ and phenol concentrations. The maximum yield of nitrophenols (4- and 2-) was obtained at a substrate and oxidant concentrations of 1.0 mM, and at 40 mM NO2^− concentration, respectively.

A short description of series [3]: Peroxidase activity: guaiacol oxidation with H2O2 (tetraguaiacol formation at 470 nm). Format: biochemical. On the procedure:
The peroxidase activity on the guaiacol substrate was evaluated by following the formation of guaiacol oxidation product, tetraguaiacol. Changes in the absorbance at 470 nm were measured, considering a ε470=2.66×10^4 M^−1cm^−1.
In details, in the experiments performed at various H2O2 concentrations (in the range 1÷ 40 mM), the guaiacol concentration was kept constant at 0.1 mM. In the experiments performed at various guaiacol concentrations, in the range 0.0025÷ 0.07 mM, the H2O2 concentration was 10 mM.

The conditions of series [4]: ABTS oxidation with H2O2, pH 7.0; cited from earlier work.
For series [5] the following is noted: in the presence of lactoperoxidase; cited from earlier work.
Where [6] appears, read: ABTS oxidation with H2O2, pH 6.5, 50% TFE (v/v) 100 mM phosphate buffer.
The mark [7] stands for this setting: ABTS oxidation with H2O2, pH 6.5, 50% TFE (v/v) 100 mM phosphate buffer, read-out: Km^H2O2.
Where [8] appears, read: AH2 = ABTS, pH 6.5, 50% TFE (v/v) 100 mM phosphate buffer, read-out: Km^AH2.

The term kcat denotes the maximal rate divided by the concentration of active sites. The term Km denotes the substrate concentration at which the rate is half of its maximum. In the case of “3,7,12,17-tetramethyl-porphyrin-2 (18)-N9epsilon-(Ace-Asp1-Glu2-Gln3-Gln4-Leu5-His6-Ser7-Gln8-Lys9-Arg10-Lys11-Ile12-Thr13-Leu14-NH2)-18(2)-N9epsilon-(Ace-Asp1-Glu2-Gln3-Gln4-Leu5-Gly6-Ser7-Gln8-Lys9-Arg10-NH2)-di-propionamide [Example 7]”, the Specific activity in series [1] worked out at 7.976 mol/g/min. In series [1] (setting [6]), the kcat came to 468 s⁻¹. The Km in series [1] (setting [7]) came out at 46000 µM; in series [1] (setting [8]) it was 125 µM.
The corresponding values for “3,7,12,17-tetramethyl-porphyrin-2(18)-N9epsilon-(Ace-Asp1-Glu2-Gln3-Gln4-Leu5-His6-Ser7-Gln8-Lys9-Arg10-Lys11-Ile12-Thr13-Leu14-NH2)-18(2)-N9epsilon-(Ace-Asp1-Glu2-Gln3-Gln4-Leu5-Ser6-Ser7-Gln8-Lys9-Leu10-NH2)-di-propionamide [Example 9]” are 2.890 mol/g/min, 169 s⁻¹, 20000 µM and 29 µM.
Regarding “3,7,12,17-tetramethyl-porphyrin-2(18)-N9epsilon-(Ace-Asp1-Glu2-Gln3-Gln4-Leu5-His6-Ser7-Gln8-Lys9-Arg10-Lys11-Ile12-Thr13-Leu14-NH2)-18(2)-N9epsilon-(Ace-Asp1-Leu2-Gln3-Gln4-Leu5-Ser6-Ser7-Gln8-Lys9-Arg10-NH2)-di-propionamide [Example 8]”, the Specific activity in series [1] was found to be 6.463 mol/g/min. In addition, the kcat in series [1] (setting [6]) came out at 381 s⁻¹. For the same substance, the Km came to 96000 µM in series [1] (setting [7]) and 115 µM in series [1] (setting [8]).
In the case of “3,7,12,17-tetramethyl-porphyrin-2(18)-N9epsilon-(Ace-Asp1-Glu2-Gln3-Gln4-Leu5-His6-Ser7-Gln8-Lys9-Leu10-Lys11-Ile12-Thr13-Leu14-NH2)-18(2)-N9epsilon-(Ace-Asp1-Glu2-Gln3-Gln4-Leu5-Ser6-Ser7-Gln8-Lys9-Arg10-NH2)-di-propionamide [Example 5]”, the Specific activity in series [1] amounted to 11.72 mol/g/min; in series [1] (listed as Esempio 5), 11.716 mol/g/min. Moreover, in series [1] (setting [6]), the kcat turned out to be 685 s⁻¹. For the same substance, the Km in series [1] (setting [7]) is 54000 µM; in series [1] (setting [8]), 38 µM.
Regarding “3,7,12,17-tetramethylporphyrin-18(2)-propionicacid-2(18)-N9epsilon-(Ac-Asp1-Glu2-Gln3-Gln4-Leu5-His6-Ser7-Gln8-Lys9-Arg10-Lys11-Ile12-Thr13-Leu14-NH2)propionamide [Example 4]”, the Specific activity in series [1] stood at 17.86 mol/g/min; in series [1] (listed as Esempio 4), 17.860 mol/g/min. The kcat in series [1] (setting [6]) is 688 s⁻¹. Further, the Km in series [1] (setting [7]) was determined as 80000 µM; in series [1] (setting [8]), 130 µM.
On to “Fe(III)-3,7,12,17-tetramethyl-porphyrin-2(18)-N9epsilon-(Ace-Asp1-Glu2-Gln3-Gln4-Leu5-His6-Ser7-Gln8-Lys9-Arg10-Lys11-Ile12-Thr13-Leu14-NH2)-18(2)-N9epsilon-(Ace-Asp1-Glu2-Gln3-Gln4-Leu5-Ser6-Ser7-Gln8-Lys9-Arg10-NH2)-di-propionammide [Example 1]”, for which the “total yield of nitrophenols (4- and 2-)” value in series [2] is reported as “about 14.8%”. Further, the Specific activity in series [1] stood at 6.269 mol/g/min. Further, the kcat was 370.9 ± 14 s⁻¹ in series [1] (setting [6]); 371 s⁻¹ in series [1] (ABTS oxidation with H2O2, pH 6.5, 50% TFE (v/v) 100 mM phosphate buffer, listed as Esempio 1); 8.0 ± 0.1 s⁻¹ in series [3] (guaiacol oxidation with H2O2). In addition, the Km in series [1] (setting [7]) came to 44000 µM; in series [1] (setting [8]), 84 µM; in series [1] (AH2 = ABTS, pH 6.5, 50% TFE, 2.0×10^−7 M catalyst, read-out: Km^AH2) it was 84 ± 2 µM; in series [3] (AH2 = guaiacol), 9.2 ± 0.4 µM. For the same substance, the “specific activity for ABTS oxidation” value in series [1] (pH=6.5) came to 104 mmol/g/s. Further, the “specific activity for guaiacol oxidation relative to horseradish peroxidase” value in series [3] (versus horseradish peroxidase) is reported as “two times higher”.
“H-Cys-Ala-Gln-Cys-His-Thr-Val-Glu-OH (CAQCHTVE; heme covalently attached; printed: Cys-Ala-Gln-Cys-His-Thr-Val-Glu-) [MP8, microperoxidase, mono-adduct porphyrin obtained from proteolytic digestion of cytochromes c]”: in series [4], the Specific activity is 0.000104 mol/g/min and the turnover number (kcat) was 0.0026 s⁻¹.
On to “H-VQKCAQCHTVE-OH (cysteine pairing not given here) [MP11]”, for which, in series [4], the Specific activity is 0.000419 mol/g/min and the turnover number (kcat) was 0.013 s⁻¹.
Turning to lactoperoxidase, the “total yield of nitrophenols relative to the compound of example 1” value in series [5] is reported as “fourfold higher”.
